# Laboratory results: patent US20240293561A1, “BRAIN PERMEABLE MULTIFUNCTIONAL SYSTEM AND USES THEREOF” (NANOCARRY THERAPEUTICS LTD., priority 2021, published 2024)
# Assay: Delivery of cisPt&IgG1&Ins-GNPs into mice brain, Au and Pt measured by ICP-OES
# Format: in vivo, Male BALB/c mice
# Settings: 8 hours after IV injection, after perfusion
# Procedure: Male BALB/c mice were divided into four treatment groups: • Group 1: Anti-IgG1 & insulin-conjugated GNPs (IgG1&Ins-GNPs; n=2) • Group 2: Cisplatin & insulin-conjugated GNPs (CisPt&Ins-GNPs; n=2) • Group 3: Multifuctional GNPs (cisPt&IgG1&Ins-GNPs; n=2) • Group 4: Free cisplatin (n=2)
# Mice were injected intravenously with IgG1&Ins-GNPs (200 μl, 25 mg/ml), cisPt&Ins-GNPs (200 μl of 25 mg/ml), cisPt&IgG1&Ins-GNPs (200 μl of 25 mg/ml), or with equivalent amounts of free cisplatin. Eight hours post injection, mice underwent perfusion to remove all the particles residing within the blood vessels. Then, mice brains were extracted and analyzed using ICP-OES to measure the amounts of Au and Pt that penetrated into the brain (FIGS. 6A and 6B, respectively).
substance,measurement,value
cisPt&Ins-GNPs: GNPs conjugated with insulin and cisplatin; control particle,amount of Pt within the brain compared with equivalent dose of free cisplatin,significantly higher
